Where a chain is given by its changes, count along the chain named.
B1: 22003 (protein)
chain: MALPVTALLLPLALLLHAARPLEGKPIPNPLLGLDSTGSGEDLKNVFPPEVAVFEPSKAEIAHTQKATLVCLATGFYPDHVELSWWVNGKEVHSGVCTDPQPLKEQPALNDSRYCLSSRLRVSATFWQNPRNHFRCQVQFYGLSENDEWTQDRAKPVTQIVSAEAWGRADCGITSASYHQGVLSATILYEILLGKATLYAVLVSALVLMAMVKRKDSRGRAKRSGSGATNFSLLKQAGDVEENPGPTSTMALPVTALLLPLALLLHAARPQLQLQESGPGLVKPSETLSLTCTVSGDSISSGDYYWGWIRQPPGKGLEWIGHIYYSGVTYYNPSLKSRVTISVDTSRNQFSLKLSSVTAADTAVYYCTREDSSNWRSRGQGTLVTVSSLESGGGGSFEEVQLLESGGGLVQPGGSLRLSCAASGFTFSSYAMSWVRQAPGKGLEWVSSISGSGDYIYYADSVKGRFTISRDISKNTLYLQMNSLRAEDTAVYYCAKEGTGANSSLADYRGQGTLVTVSSTREQKLISEEDGSGIQNPDPAVYQLRDSKSSDKSVCLFTDFDSQTNVSQSKDSDVYITDKCVLDMRSMDFKSNSAVAWSNKSDFACANAFNNSIIPEDTFFPSSDVPCDVKLVEKSFETDTNLNFQNLSVIGFRILLLKVAGFNLLMTLRLWSSRAKRSGSGVKQTLNFDLLKLAGDVESNPGPSRGHMTEYKPTVRLATRDDVPRAVRTLAAAFADYPATRHTVDPDRHIERVTELQELFLTRVGLDIGKVWVADDGAAVAVWTTPESVEAGAVFAEIGPRMAELSGSRLAAQQQMEGLLAPHRPKEPAWFLATVGVSPDHQGKGLGSAVVLPGVEAAERAGVPAFLETSAPRNLPFYERLGFTVTADVEVPEGPRTWCMTRKPGA
B2: 21997 (protein)
chain: MALPVTALLLPLALLLHAARPQLQLQESGPGLVKPSETLALTCNVSGGSISSSSYYWGWIRQPPGKRLEWIGSIYYSGSTYFNPSLKSRVTISVDTSKNQFSLKLSSVTAADTAVYYCAGGDYYGPVGQWPSDYRGQGTLVTVSSLEDLKNVFPPEVAVFEPSEAEISHTQKATLVCLATGFYPDHVELSWWVNGKEVHSGVCTDPQPLKEQPALNDSRYCLSSRLRVSATFWQNPRNHFRCQVQFYGLSENDEWTQDRAKPVTQIVSAEAWGRADCGFTSESYQQGVLSATILYEILLGKATLYAVLVSALVLMAMVKRKDSRGRAKRSGSGATNFSLLKQAGDVEENPGPTSMDWIWRILFLVGAATGAHSFEQVQLVESGGGLVQPGGSLRLSCAASGFTFTNHAMSWVRQAPGKGLELVSSISGNGRTTYYADSVKGRFTISRDISKNTLDLQMNSLRAEDTAVYYCAKDGGETLVDSRGQGTLVTVSSTRIQNPDPAVYQLRDSKSSDKSVCLFTDFDSQTNVSQSKDSDVYITDKCVLDMRSMDFKSNSAVAWSNKSDFACANAFNNSIIPEDTFFPSPESSCDVKLVEKSFETDTNLNFQNLSVIGFRILLLKVAGFNLLMTLRLWSSRAKRSGSGVKQTLNFDLLKLAGDVESNPGPSRGHMTEYKPTVRLATRDDVPRAVRTLAAAFADYPATRHTVDPDRHIERVTELQELFLTRVGLDIGKVWVADDGAAVAVWTTPESVEAGAVFAEIGPRMAELSGSRLAAQQQMEGLLAPHRPKEPAWFLATVGVSPDHQGKGLGSAVVLPGVEAAERAGVPAFLETSAPRNLPFYERLGFTVTADVEVPEGPRTWCMTRKPGA
B3: 22004 (protein)
chain: MALPVTALLLPLALLLHAARPLEGKPIPNPLLGLDSTGSGEDLKNVFPPEVAVFEPSKAEIAHTQKATLVCLATGFYPDHVELSWWVNGKEVHSGVCTDPQPLKEQPALNDSRYCLSSRLRVSATFWQNPRNHFRCQVQFYGLSENDEWTQDRAKPVTQIVSAEAWGRADCGITSASYHQGVLSATILYEILLGKATLYAVLVSALVLMAMVKRKDSRGRAKRSGSGATNFSLLKQAGDVEENPGPTSTMALPVTALLLPLALLLHAARPQLQLQESGPGLVKPSETLSLTCTVSGDSISSGDYYWGWIRQPPGKGLEWIGHIYYSGVTYYNPSLKSRVTISVDTSRNQFSLKLSSVTAADTAVYYCTREDSSNWRSRGQGTLVTVSSLESGGGGSFEQVQLVESGGGLVQPGGSLRLSCAASGFTFTNHAMSWVRQAPGKGLELVSSISGNGRTTYYADSVKGRFTISRDISKNTLDLQMNSLRAEDTAVYYCAKDGGETLVDSRGQGTLVTVSSTREQKLISEEDGSGIQNPDPAVYQLRDSKSSDKSVCLFTDFDSQTNVSQSKDSDVYITDKCVLDMRSMDFKSNSAVAWSNKSDFACANAFNNSIIPEDTFFPSSDVPCDVKLVEKSFETDTNLNFQNLSVIGFRILLLKVAGFNLLMTLRLWSSRAKRSGSGVKQTLNFDLLKLAGDVESNPGPSRGHMTEYKPTVRLATRDDVPRAVRTLAAAFADYPATRHTVDPDRHIERVTELQELFLTRVGLDIGKVWVADDGAAVAVWTTPESVEAGAVFAEIGPRMAELSGSRLAAQQQMEGLLAPHRPKEPAWFLATVGVSPDHQGKGLGSAVVLPGVEAAERAGVPAFLETSAPRNLPFYERLGFTVTADVEVPEGPRTWCMTRKPGA
B4: 22687 (protein)
chain: MALPVTALLLPLALLLHAARPDIQMTQSPSSLSASVGDRVTITCRASQDISNYLNWYQQKPGKAPKLLIYYTSRLHSGVPSRFSGSGSGTDFTLTISSLQPEDFATYYCQQGNTLPWTFGQGTKVEIKRLEDLKNVFPPEVAVFEPSEAEISHTQKATLVCLATGFYPDHVELSWWVNGKEVHSGVCTDPQPLKEQPALNDSRYCLSSRLRVSATFWQNPRNHFRCQVQFYGLSENDEWTQDRAKPVTQIVSAEAWGRADCGFTSESYQQGVLSATILYEILLGKATLYAVLVSALVLMAMVKRKDSRGRAKRSGSGATNFSLLKQAGDVEENPGPTSMDWIWRILFLVGAATGAHSFEVQLVESGGGLVQPGGSLRLSCAASGYTFSDYFMSWVRQAPGKGLEWVATISNGGTYTYYPDSVKGRFTISRDNSKNTLYLQMNSLRAEDTAVYYCARFDGYIFDYWGQGTLVTVSSTRIQNPDPAVYQLRDSKSSDKSVCLFTDFDSQTNVSQSKDSDVYITDKCVLDMRSMDFKSNSAVAWSNKSDFACANAFNNSIIPEDTFFPSPESSCDVKLVEKSFETDTNLNFQNLSVIGFRILLLKVAGFNLLMTLRLWSSRAKRSGSGVKQTLNFDLLKLAGDVESNPGPSRGHMTEYKPTVRLATRDDVPRAVRTLAAAFADYPATRHTVDPDRHIERVTELQELFLTRVGLDIGKVWVADDGAAVAVWTTPESVEAGAVFAEIGPRMAELSGSRLAAQQQMEGLLAPHRPKEPAWFLATVGVSPDHQGKGLGSAVVLPGVEAAERAGVPAFLETSAPRNLPFYERLGFTVTADVEVPEGPRTWCMTRKPGA
B5: 22692 (protein)
chain: B4 chain with Y385F

Columns and labels:
Nalm6 cells = assay: JNG assay, co-culture with Nalm6 cells; assay type: cell-based; conditions: co-culture with Nalm6
Procedure, shortened: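 Jurkat NFAT-GFP reporter cells stably expressing lentivirally delivered SARs (puromycin or blasticidin selection) were cocultured with target cells at E:T ~1:2 for ~4–18 h. GFP was read by FACS, and % GFP+ cells were scored against parental reporter cells (+/-, +, 2+…5+ ≈ 5%, 10%, 20%…50%).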

RAJI cells = assay: JNG assay, co-culture with RAJI cells; assay type: cell-based; conditions: JNG cells expressing construct, co-culture with Raji
Procedure, shortened: (§1)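 Read-out is NFAT-driven GFP measured by flow cytometry after ~4–18 h co-culture of SAR-expressing JNG cells with target cells (E:T about 1:2). SARs were introduced by lentiviral spinfection and selected with puromycin or blasticidin when possible; scores (+/- to 5+ ≈ 5–50% GFP+) are relative to parental JNG cells.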

DAUDI = assay: JNG assay, co-culture with DAUDI cells; assay type: cell-based
Protocol: Cellular supernatant is collected and assayed for the induction of cytokines (e.g., IL2).
JNG (Jurkat cells expressing EGFP under an NFAT promoter) were infected with lentiviral vectors encoding different single chain and multi-chain SARs by spinfection in the presence of 8 µg/ml of Polybrene® (Sigma, Catalog no. H9268). The Jurkat-NFAT-GFP cells are engineered in such a way that the IL-2 promoter, which carries NFAT binding sites, is cloned upstream of the GFP gene. These cells have been used to study signaling via TCR and CAR. The different SARs were stably expressed in Jurkat NFAT-GFP cells by lentiviral mediated gene transfer, followed by selection with puromycin or blasticidin. No drug selection was used in case the construct lacked an antibiotic resistance gene. The SAR-expressing Jurkat-NFAT-GFP cells were cocultured with the target cells at E:T ratio of approximately 1:2 for approximately 4 hours to 18 hours. When the interaction between SIRs and their target antigen results in activation of the NFAT pathway, GFP expression is induced. […] GFP expression was monitored by FACS analysis. The Jurkat-NFAT-GFP (parental) cells were used as control. The structure of different constructs can be determined based on their names. […] The sequence of the other constructs in the table can be similarly determined from their names and by referring to the different Tables of this disclosure that provide the names and SEQ ID NO of the different modules. Alternatively, the composition and modular architecture of the different SAR constructs can be determined from their sequences by bioinformatics tools, including using nucleic acid and amino acids homology searches. A SAR is considered positive in the assay in case the SAR expressing Jurkat-NFAT-GFP cells show greater % GFP positive cells when cultured with the target cell line as compared to parental Jurkat-NFAT-GFP cells. […] In general, the number +/-, +, 2+, 3+, 4+, 5+ refer to approximately 5%, 10%, 20%, 30%, 40% and 50% GFP positive cells. […]

L363 cells = assay: JNG assay, co-culture with L363 cells; assay type: cell-based; conditions: co-culture with L363
Procedure, shortened: as §1

[1] = JNG NFAT-GFP background GFP induction (tonic signaling); conditions: JNG cells expressing construct, without target
SKOV3 cells = assay type: cell-based
PC3 cells = assay: JNG NFAT-GFP induction on co-culture with PC3

Row | Molecule | NFAT-GFP ASSAY: Nalm6 (Nalm6 cells) | NFAT-GFP ASSAY: Raji (RAJI cells) | NFAT-GFP ASSAY: Daudi (DAUDI) | NFAT-GFP ASSAY: L363 (L363 cells) | NFAT-GFP ASSAY: Self Activation (SA) [1] | NFAT-GFP ASSAY: SKOV-3 (SKOV3 cells) | NFAT-GFP ASSAY: PC-3 (PC3 cells)
1 | B1 | +/- (refer to approximately 5%, 10%, 20%, 30%, 40% and 50% GFP positive cells) | + (refer to approximately 5%, 10%, 20%, 30%, 40% and 50% GFP positive cells) | +/- (refer to approximately 5%, 10%, 20%, 30%, 40% and 50% GFP positive cells) | + (refer to approximately 5%, 10%, 20%, 30%, 40% and 50% GFP positive cells) | – | – | –
2 | B2 | – | – | – | + (refer to approximately 5%, 10%, 20%, 30%, 40% and 50% GFP positive cells) | Self Activation | – | –
3 | B3 | +/- (refer to approximately 5%, 10%, 20%, 30%, 40% and 50% GFP positive cells) | + (refer to approximately 5%, 10%, 20%, 30%, 40% and 50% GFP positive cells) | +/- (refer to approximately 5%, 10%, 20%, 30%, 40% and 50% GFP positive cells) | + (refer to approximately 5%, 10%, 20%, 30%, 40% and 50% GFP positive cells) | – | – | –
4 | B4 | – | – | – | – | – | weaker but sufficient GFP induction | none to negligible GFP induction
5 | B5 | – | – | – | – | – | weaker but sufficient GFP induction | none to negligible GFP induction
